This data set is described as follows: background-corrected fluorescence of 3'-dye-labeled ssDNA relative to brightest sequence (3'-GCGCG) (fraction); higher = brighter dye fluorescence (less quenching). In outline:
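Subtracting background from unlabeled oligos and scaling to the brightest sequence gave the reported fluorescence. Single-stranded DNA bearing a 3' Cy3 or Cy5 dye next to each of 1024 permuted pentamers was assembled on glass slides by light-directed phosphoramidite synthesis. Following a 2 h r.t. acetonitrile wash, slides were scanned at 532 or 635 nm before and after overnight ethylenediamine/ethanol deprotection, and values were averaged over 10 features per array and at least 3 syntheses.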

The record followed here is the supplement of paper PMC9428881.

± gives the standard error.

Take “TTTTTTGATGATGATGCTGATTTTTTTTTTTTTTTCCCAC [CACCC]”: the background-corrected fluorescence reads like this: (dye: Cy3 (3' terminal)) 0.373 ± 0.022; (dye: Cy5 (3' terminal)) 0.294 ± 0.044.
In the case of “TTTTTTGATGATGATGCTGCTTTTTTTTTTTTTTTCCCAA [AACCC]”, the background-corrected fluorescence runs as follows: (dye: Cy3 (3' terminal)) 0.485 ± 0.031; (dye: Cy5 (3' terminal)) 0.386 ± 0.022.
The corresponding values for “TTTTTTGATGATGCGCAGCATTTTTTTTTTTTTTTCCATT [TTACC]” are 0.541 ± 0.041 and 0.357 ± 0.02.
For “TTTTTTGATGATGCGCATCATTTTTTTTTTTTTTTCCATG [GTACC]”, in that order: 0.542 ± 0.026 and 0.361 ± 0.035.
For “TTTTTTGATGATGCGCATGATTTTTTTTTTTTTTTCCATC [CTACC]”, in that order: 0.387 ± 0.081 and 0.281 ± 0.02.
In turn, “TTTTTTGATGATGCGCATGCTTTTTTTTTTTTTTTCCATA [ATACC]” returned a background-corrected fluorescence (dye: Cy3 (3' terminal)) of 0.488 ± 0.015 and a background-corrected fluorescence (dye: Cy5 (3' terminal)) of 0.38 ± 0.033.
Regarding “TTTTTTGATGATGCTCAGCATTTTTTTTTTTTTTTCCAGT [TGACC]”, the background-corrected fluorescence reads like this: (dye: Cy3 (3' terminal)) 0.615 ± 0.023; (dye: Cy5 (3' terminal)) 0.458 ± 0.021.
On to “TTTTTTGATGATGCTCATCATTTTTTTTTTTTTTTCCAGG [GGACC]”, for which the background-corrected fluorescence reads like this: (dye: Cy3 (3' terminal)) 0.642 ± 0.016; (dye: Cy5 (3' terminal)) 0.511 ± 0.057.
Consider “TTTTTTGATGATGCTCATGATTTTTTTTTTTTTTTCCAGC [CGACC]”, for which the background-corrected fluorescence was 0.503 ± 0.036 (dye: Cy3 (3' terminal)) and 0.395 ± 0.02 (dye: Cy5 (3' terminal)).
The corresponding values for “TTTTTTGATGATGCTCATGCTTTTTTTTTTTTTTTCCAGA [AGACC]” are 0.635 ± 0.027 and 0.527 ± 0.028.
For “TTTTTTGATGATGCTGAGCATTTTTTTTTTTTTTTCCACT [TCACC]”, in that order: 0.444 ± 0.029 and 0.322 ± 0.023.
The corresponding values for “TTTTTTGATGATGCTGATCATTTTTTTTTTTTTTTCCACG [GCACC]” are 0.513 ± 0.025 and 0.386 ± 0.021.
Consider “TTTTTTGATGATGCTGATGATTTTTTTTTTTTTTTCCACC”, for which the background-corrected fluorescence by setting is: (dye: Cy3 (3' terminal)) 0.378 ± 0.0043; (dye: Cy5 (3' terminal)) 0.275 ± 0.026.
For “TTTTTTGATGATGCTGATGCTTTTTTTTTTTTTTTCCACA [ACACC]”, in that order: 0.472 ± 0.027 and 0.375 ± 0.055.
For “TTTTTTGATGATGCTGCGCATTTTTTTTTTTTTTTCCAAT [TAACC]”, in that order: 0.527 ± 0.017 and 0.394 ± 0.022.
For “TTTTTTGATGATGCTGCTCATTTTTTTTTTTTTTTCCAAG [GAACC]”, in that order: 0.521 ± 0.029 and 0.384 ± 0.029.
With “TTTTTTGATGATGCTGCTGATTTTTTTTTTTTTTTCCAAC [CAACC]”, the background-corrected fluorescence came to 0.403 ± 0.021 (dye: Cy3 (3' terminal)) and 0.291 ± 0.02 (dye: Cy5 (3' terminal)).
As for “TTTTTTGATGATGCTGCTGCTTTTTTTTTTTTTTTCCAAA [AAACC]”, the background-corrected fluorescence reads like this: (dye: Cy3 (3' terminal)) 0.559 ± 0.025; (dye: Cy5 (3' terminal)) 0.445 ± 0.051.
The corresponding values for “TTTTTTGATGCGCAGCAGCATTTTTTTTTTTTTTTCATTT [TTTAC]” are 0.523 ± 0.022 and 0.38 ± 0.032.
For “TTTTTTGATGCGCAGCATCATTTTTTTTTTTTTTTCATTG [GTTAC]”, in that order: 0.561 ± 0.029 and 0.363 ± 0.021.
For “TTTTTTGATGCGCAGCATGATTTTTTTTTTTTTTTCATTC [CTTAC]”, in that order: 0.398 ± 0.017 and 0.297 ± 0.021.
Consider “TTTTTTGATGCGCAGCATGCTTTTTTTTTTTTTTTCATTA [ATTAC]”, for which the background-corrected fluorescence was determined as 0.554 ± 0.021 (dye: Cy3 (3' terminal)) and 0.398 ± 0.027 (dye: Cy5 (3' terminal)).
The corresponding values for “TTTTTTGATGCGCATCAGCATTTTTTTTTTTTTTTCATGT [TGTAC]” are 0.615 ± 0.028 and 0.464 ± 0.032.
For “TTTTTTGATGCGCATCATCATTTTTTTTTTTTTTTCATGG [GGTAC]”, in that order: 0.6391 ± 0.0053 and 0.521 ± 0.075.
For “TTTTTTGATGCGCATCATGATTTTTTTTTTTTTTTCATGC [CGTAC]”, in that order: 0.536 ± 0.028 and 0.395 ± 0.026.
Consider “TTTTTTGATGCGCATCATGCTTTTTTTTTTTTTTTCATGA [AGTAC]”, for which the background-corrected fluorescence (dye: Cy3 (3' terminal)) came out at 0.672 ± 0.026 and the background-corrected fluorescence (dye: Cy5 (3' terminal)) stood at 0.579 ± 0.038.
The corresponding values for “TTTTTTGATGCGCATGAGCATTTTTTTTTTTTTTTCATCT [TCTAC]” are 0.48 ± 0.021 and 0.33 ± 0.034.
For “TTTTTTGATGCGCATGATCATTTTTTTTTTTTTTTCATCG [GCTAC]”, in that order: 0.543 ± 0.018 and 0.375 ± 0.026.
For “TTTTTTGATGCGCATGATGATTTTTTTTTTTTTTTCATCC [CCTAC]”, in that order: 0.38 ± 0.02 and 0.273 ± 0.017.
For “TTTTTTGATGCGCATGATGCTTTTTTTTTTTTTTTCATCA [ACTAC]”, the background-corrected fluorescence runs as follows: (dye: Cy3 (3' terminal)) 0.483 ± 0.034; (dye: Cy5 (3' terminal)) 0.372 ± 0.026.
For “TTTTTTGATGCGCATGCGCATTTTTTTTTTTTTTTCATAT [TATAC]”, in that order: 0.501 ± 0.036 and 0.397 ± 0.025.
For “TTTTTTGATGCGCATGCTCATTTTTTTTTTTTTTTCATAG [GATAC]”, the background-corrected fluorescence (dye: Cy3 (3' terminal)) came out at 0.521 ± 0.02 and the background-corrected fluorescence (dye: Cy5 (3' terminal)) was 0.422 ± 0.027.
The corresponding values for “TTTTTTGATGCGCATGCTGATTTTTTTTTTTTTTTCATAC” are 0.443 ± 0.024 and 0.314 ± 0.032.
The corresponding values for “TTTTTTGATGCGCATGCTGCTTTTTTTTTTTTTTTCATAA [AATAC]” are 0.529 ± 0.021 and 0.428 ± 0.022.
The corresponding values for “TTTTTTGATGCTCAGCAGCATTTTTTTTTTTTTTTCAGTT [TTGAC]” are 0.598 ± 0.018 and 0.434 ± 0.015.
For “TTTTTTGATGCTCAGCATCATTTTTTTTTTTTTTTCAGTG [GTGAC]”, the background-corrected fluorescence reads like this: (dye: Cy3 (3' terminal)) 0.61 ± 0.026; (dye: Cy5 (3' terminal)) 0.463 ± 0.025.
For “TTTTTTGATGCTCAGCATGATTTTTTTTTTTTTTTCAGTC [CTGAC]”, in that order: 0.477 ± 0.0054 and 0.373 ± 0.086.
For “TTTTTTGATGCTCAGCATGCTTTTTTTTTTTTTTTCAGTA [ATGAC]”, the background-corrected fluorescence reads like this: (dye: Cy3 (3' terminal)) 0.609 ± 0.021; (dye: Cy5 (3' terminal)) 0.461 ± 0.022.
The corresponding values for “TTTTTTGATGCTCATCAGCATTTTTTTTTTTTTTTCAGGT [TGGAC]” are 0.693 ± 0.045 and 0.534 ± 0.037.
Regarding “TTTTTTGATGCTCATCATCATTTTTTTTTTTTTTTCAGGG [GGGAC]”, the background-corrected fluorescence stood at 0.723 ± 0.023 (dye: Cy3 (3' terminal)) and 0.574 ± 0.026 (dye: Cy5 (3' terminal)).
“TTTTTTGATGCTCATCATGATTTTTTTTTTTTTTTCAGGC [CGGAC]”: the background-corrected fluorescence was 0.571 ± 0.012 (dye: Cy3 (3' terminal)) and 0.469 ± 0.032 (dye: Cy5 (3' terminal)).
The corresponding values for “TTTTTTGATGCTCATCATGCTTTTTTTTTTTTTTTCAGGA [AGGAC]” are 0.705 ± 0.027 and 0.6 ± 0.034.
The corresponding values for “TTTTTTGATGCTCATGAGCATTTTTTTTTTTTTTTCAGCT [TCGAC]” are 0.543 ± 0.022 and 0.418 ± 0.022.
For “TTTTTTGATGCTCATGATCATTTTTTTTTTTTTTTCAGCG [GCGAC]”, in that order: 0.622 ± 0.036 and 0.502 ± 0.043.
Regarding “TTTTTTGATGCTCATGATGATTTTTTTTTTTTTTTCAGCC [CCGAC]”, the background-corrected fluorescence by setting is: (dye: Cy3 (3' terminal)) 0.462 ± 0.011; (dye: Cy5 (3' terminal)) 0.321 ± 0.042.
The corresponding values for “TTTTTTGATGCTCATGATGCTTTTTTTTTTTTTTTCAGCA [ACGAC]” are 0.514 ± 0.019 and 0.448 ± 0.027.
The corresponding values for “TTTTTTGATGCTCATGCGCATTTTTTTTTTTTTTTCAGAT [TAGAC]” are 0.576 ± 0.018 and 0.469 ± 0.021.
With “TTTTTTGATGCTCATGCTCATTTTTTTTTTTTTTTCAGAG [GAGAC]”, the background-corrected fluorescence (dye: Cy3 (3' terminal)) worked out at 0.595 ± 0.022 and the background-corrected fluorescence (dye: Cy5 (3' terminal)) was 0.462 ± 0.03.
For “TTTTTTGATGCTCATGCTGATTTTTTTTTTTTTTTCAGAC”, in that order: 0.451 ± 0.024 and 0.372 ± 0.017.
For “TTTTTTGATGCTCATGCTGCTTTTTTTTTTTTTTTCAGAA [AAGAC]”, in that order: 0.609 ± 0.022 and 0.471 ± 0.027.
The corresponding values for “TTTTTTGATGCTGAGCAGCATTTTTTTTTTTTTTTCACTT” are 0.498 ± 0.016 and 0.351 ± 0.022.
As to “TTTTTTGATGCTGAGCATCATTTTTTTTTTTTTTTCACTG [GTCAC]”, the background-corrected fluorescence by setting is: (dye: Cy3 (3' terminal)) 0.487 ± 0.028; (dye: Cy5 (3' terminal)) 0.398 ± 0.035.
The corresponding values for “TTTTTTGATGCTGAGCATGATTTTTTTTTTTTTTTCACTC [CTCAC]” are 0.399 ± 0.017 and 0.296 ± 0.022.
For “TTTTTTGATGCTGAGCATGCTTTTTTTTTTTTTTTCACTA [ATCAC]”, in that order: 0.471 ± 0.014 and 0.352 ± 0.025.
The corresponding values for “TTTTTTGATGCTGATCAGCATTTTTTTTTTTTTTTCACGT [TGCAC]” are 0.588 ± 0.034 and 0.473 ± 0.03.
Sequence “TTTTTTGATGCTGATCATCATTTTTTTTTTTTTTTCACGG [GGCAC]” came in with a background-corrected fluorescence (dye: Cy3 (3' terminal)) of 0.584 ± 0.023 and a background-corrected fluorescence (dye: Cy5 (3' terminal)) of 0.525 ± 0.03.
For “TTTTTTGATGCTGATCATGATTTTTTTTTTTTTTTCACGC [CGCAC]”, in that order: 0.536 ± 0.021 and 0.438 ± 0.036.
In the case of “TTTTTTGATGCTGATCATGCTTTTTTTTTTTTTTTCACGA [AGCAC]”, the background-corrected fluorescence was determined as 0.594 ± 0.013 (dye: Cy3 (3' terminal)) and 0.471 ± 0.023 (dye: Cy5 (3' terminal)).
